Columns and labels:
[1] = molecular target: HLA-C*14:02; test: IEDB peptide-MHC binding, purified MHC/direct/fluorescence; filed as Kd, often an IC50 or EC50 that approximates it; ≥ and ≤ were set here for values at or beyond the usual limits of such assays; details: source organism: Mycobacterium tuberculosis variant bovis BCG str. Pasteur 1173P2
[2] = molecular target: HLA-C*03:03; test: as above
[3] = molecular target: HLA-C*12:03; test: as above; details: source organism: Rattus norvegicus
[4] = molecular target: HLA-B*07:02; test: as above; details: source organism: Mus musculus
[5] = molecular target: HLA-B*27:03; test: IEDB peptide-MHC binding, purified MHC/competitive/fluorescence; filed as Kd, often an IC50 or EC50 that approximates it; ≥ and ≤ were set here for values at or beyond the usual limits of such assays
[6] = molecular target: HLA-C*14:02; test: as above; details: source organism: Rattus norvegicus
[7] = molecular target: HLA-B*15:17; test: as above
[8] = molecular target: HLA-B*45:06; test: as above
[9] = molecular target: HLA-B*15:42; test: as above
[10] = molecular target: HLA-B*83:01; test: as above
[11] = molecular target: HLA-B*18:01; test: IEDB peptide-MHC binding, purified MHC/direct/fluorescence; filed as Kd, often an IC50 or EC50 that approximates it; ≥ and ≤ were set here for values at or beyond the usual limits of such assays
[12] = molecular target: HLA-A*68:02; test: as above
[13] = molecular target: HLA-A*02:03; test: as above
[14] = molecular target: HLA-B*15:01; test: as above
[15] = molecular target: HLA-B*27:03; test: as above
[16] = molecular target: HLA-A*02:12; test: as above
[17] = molecular target: HLA-A*02:16; test: as above
[18] = molecular target: HLA-B*51:01; test: as above
[19] = molecular target: HLA-A*03:01; test: as above
[20] = molecular target: HLA-A*02:01; test: as above
[21] = molecular target: HLA-A*02:19; test: as above
[22] = molecular target: HLA-B*57:01; test: as above
[23] = molecular target: HLA-B*39:01; test: as above
[24] = molecular target: HLA-B*46:01; test: as above
[25] = molecular target: HLA-A*02:11; test: as above
[26] = molecular target: HLA-A*26:01; test: as above
[27] = molecular target: HLA-A*24:03; test: as above
[28] = molecular target: HLA-A*29:02; test: as above
[29] = molecular target: HLA-A*69:01; test: as above; details: source organism: Bacillus cereus G9842
[30] = molecular target: HLA-C*05:01; test: as above; details: source organism: Mycobacterium tuberculosis str. Haarlem
[31] = molecular target: HLA-B*46:01; test: IEDB peptide-MHC binding, purified MHC/competitive/fluorescence; filed as Kd, often an IC50 or EC50 that approximates it; ≥ and ≤ were set here for values at or beyond the usual limits of such assays; details: source organism: Mycobacterium tuberculosis str. Haarlem
[32] = molecular target: HLA-B*18:01; test: as above; details: source organism: Orthohantavirus andesense
[33] = molecular target: HLA-B*51:01; test: as above; details: source organism: Orthohantavirus andesense
[34] = molecular target: HLA-B*57:01; test: as above; details: source organism: Orthohantavirus andesense
[35] = molecular target: HLA-A*69:01; test: as above; details: source organism: Orthohantavirus andesense
[36] = molecular target: HLA-A*26:01; test: as above
[37] = molecular target: HLA-C*07:02; test: IEDB peptide-MHC binding, purified MHC/direct/fluorescence; filed as Kd, often an IC50 or EC50 that approximates it; ≥ and ≤ were set here for values at or beyond the usual limits of such assays
[38] = molecular target: HLA-C*06:02; test: as above; details: source organism: Escherichia coli F11
[39] = molecular target: HLA-B*15:01; test: IEDB peptide-MHC binding, purified MHC/competitive/fluorescence; filed as Kd, often an IC50 or EC50 that approximates it; ≥ and ≤ were set here for values at or beyond the usual limits of such assays; details: source organism: Escherichia coli F11
[40] = molecular target: HLA-A*01:01; test: as above; details: source organism: Escherichia coli F11
[41] = molecular target: HLA-A*24:03; test: as above; details: source organism: Escherichia coli F11
[42] = source organism: Rattus norvegicus
[43] = source organism: Mycobacterium tuberculosis str. Haarlem
[44] = source organism: Rickettsia bellii RML369-C
[45] = source organism: Bacillus cereus G9842
[46] = source organism: Entamoeba histolytica HM-1:IMSS
[47] = source organism: Orthohantavirus andesense
[48] = source organism: Escherichia coli F11

For AARIAGRHM, the Kd [1] was 654 nM.

Sequence FLRKNQRAL has a Kd [2, 42] of 52 nM, a Kd [3] of 383 nM and a Kd [4] of 0.9 nM. The Kd [5, 42] was ≥ 20 µM, the Kd [6] was 12.9 nM and the Kd [7, 42] was ≥ 20 µM. The Kd [8, 42] was ≥ 5 µM, the Kd [9, 42] was ≥ 5 µM and the Kd [10, 42] was ≥ 5 µM.

With LPVEYLQVP the Kd [11, 43] was ≥ 20 µM, the Kd [12, 43] was ≥ 20 µM and the Kd [13, 43] was ≥ 20 µM. The Kd [14, 43] was ≥ 20 µM, the Kd [15, 43] was ≥ 20 µM and the Kd [16, 43] was ≥ 20 µM. The Kd [17, 43] was ≥ 20 µM, the Kd [18, 43] was ≥ 20 µM and the Kd [19, 43] was ≥ 20 µM. The Kd [20, 43] was ≥ 20 µM, the Kd [21, 43] was ≥ 20 µM and the Kd [22, 43] was ≥ 20 µM. For the same sequence, the Kd [23, 43] was ≥ 20 µM, the Kd [24, 43] was ≥ 20 µM and the Kd [25, 43] was ≥ 20 µM. For the same sequence, the Kd [26, 43] was ≥ 20 µM.

In the case of NPLEIYQEI, the Kd [11, 44] is reported as ≥ 20 µM, the Kd [13, 44] is reported as ≥ 20 µM and the Kd [14, 44] is reported as ≥ 20 µM. The Kd [15, 44] was ≥ 20 µM, the Kd [16, 44] was ≥ 20 µM and the Kd [17, 44] was ≥ 20 µM. For the same sequence, the Kd [18, 44] was 0.132 µM, the Kd [19, 44] was ≥ 20 µM and the Kd [20, 44] was ≥ 20 µM. The Kd [21, 44] was ≥ 20 µM, the Kd [27, 44] was ≥ 20 µM and the Kd [22, 44] was ≥ 20 µM. For the same sequence, the Kd [23, 44] was ≥ 20 µM, the Kd [24, 44] was ≥ 20 µM and the Kd [25, 44] was ≥ 20 µM. The Kd [26, 44] was ≥ 20 µM and the Kd [28, 44] was ≥ 20 µM.

TQIPRQMVL was tested, and the Kd [11, 45] was ≥ 20 µM, the Kd [12, 45] was ≥ 20 µM and the Kd [15, 45] was ≥ 20 µM. The Kd [16, 45] was ≥ 20 µM, the Kd [17, 45] was ≥ 20 µM and the Kd [19, 45] was ≥ 20 µM. For the same sequence, the Kd [20, 45] was ≥ 20 µM, the Kd [21, 45] was ≥ 20 µM and the Kd [27, 45] was ≥ 20 µM. The Kd [22, 45] was ≥ 20 µM, the Kd [24, 45] was ≥ 20 µM and the Kd [25, 45] was ≥ 20 µM. The Kd [29] was ≥ 20 µM, the Kd [26, 45] was ≥ 20 µM and the Kd [28, 45] was ≥ 20 µM.

In the case of VKINIFPLY, the Kd [12, 46] is reported as ≥ 20 µM, the Kd [13, 46] is reported as ≥ 20 µM and the Kd [15, 46] is reported as ≥ 20 µM. For the same sequence, the Kd [16, 46] was ≥ 20 µM, the Kd [17, 46] was ≥ 20 µM and the Kd [18, 46] was ≥ 20 µM. The Kd [19, 46] was ≥ 20 µM, the Kd [20, 46] was ≥ 20 µM and the Kd [21, 46] was ≥ 20 µM. For the same sequence, the Kd [22, 46] was ≥ 20 µM, the Kd [23, 46] was ≥ 20 µM and the Kd [24, 46] was ≥ 20 µM. For the same sequence, the Kd [26, 46] was ≥ 20 µM.

For YAREAGIAM, the Kd [2, 43] was ≥ 20000 nM, the Kd [30] was ≥ 20 µM and the Kd [8, 43] was ≥ 5 µM. For the same sequence, the Kd [9, 43] was ≥ 5 µM, the Kd [31] was ≥ 20 µM and the Kd [10, 43] was ≥ 5 µM.

For YLIPSVTSL, the Kd [12, 47] was ≥ 20 µM, the Kd [2, 47] was ≤ 1 nM and the Kd [16, 47] was ≥ 20 µM. For the same sequence, the Kd [19, 47] was ≥ 20 µM, the Kd [20, 47] was 0.0018 µM and the Kd [21, 47] was ≥ 20 µM. The Kd [27, 47] was ≥ 20 µM, the Kd [28, 47] was ≥ 20 µM and the Kd [32] was ≥ 20 µM. The Kd [5, 47] was ≥ 20 µM, the Kd [7, 47] was ≥ 20 µM and the Kd [33] was ≥ 20 µM. The Kd [34] was ≥ 20 µM, the Kd [35] was ≥ 20 µM and the Kd [36, 47] was ≥ 20000 nM.

In the case of YRHKNYYAL, the Kd ([37]; source organism: Vaccinia virus) is reported as 57 nM.

For YTLNNGGAF, the Kd [38] was ≥ 20 µM, the Kd [37, 48] was 991 nM and the Kd [39] was 59.4 nM. For the same sequence, the Kd [40] was ≥ 20 µM, the Kd [41] was 15.1 nM and the Kd [36, 48] was 92.7 nM.
